We go through 167 variants from the RNAGym collection of RNA variant scans (doi:10.7554/elife.90254).

To fix the notation:
B1: LINE1-full (parent)
chain: UACGUAGGUGGUUUUCCCCUGAUAGUGCUAAGGGGGCCUGGAAGUUUGGACUGGGCAGAGCUCAACACAGCGUGGCAAAGUGGCUGUGGCUAGACUGCCUCUCUGGAUUCCUCGUCACUCAGCAGGGCAUCUCUGAGAGAAAUGCC

In the data set the parent is B1. Description: self-cleavage, relative activity (ratio to wild type); higher = more cleavage; in vitro, sequencing; the parent is a self-cleaving ribozyme.
Regarding U73A A141G, the self-cleavage was found to be 1.74.
Turning to G74A A117C, the self-cleavage is 1.63.
The figure for A69U A124G is 0.05; for A69U A124U it is 0.09; for G72A it is 1.3.
To G72U belongs 0.9.
Regarding G72C, the self-cleavage worked out at 1.18.
The figure for C71U A117U is 0.98; for G74U A121U it is 1.02.
For U73A A107G, the self-cleavage came out at 2.03.
On to G70C U102A, for which the self-cleavage was determined as 0.07.
A69U U109G: the self-cleavage amounted to 0.
The figure for A69U U109C is 0.06.
G75A A117U: the self-cleavage was 1.53.
For the variant C71U C76U, the self-cleavage was 1.15.
As to A69U A79G, the self-cleavage came to 0.05.
On to U73G U130C, for which the self-cleavage was 2.25.
The figure for U73C U132C is 2.09; for U73C U132A it is 1.25; for C71A A138G it is 0.33.
The figure for U73A G144A is 1.4.
Take U73C A79U: the self-cleavage is 1.65.
The figure for G75A U115A is 1.12; for G72C U108G it is 0.96; for G75A U87C it is 0.12.
G70C C90A: the self-cleavage is 0.02.
With G72U U81C, the self-cleavage was 1.28.
On to C71U U130C, for which the self-cleavage came out at 1.
To G70C A142G belongs 0.14; to U73G C84U, 0.17; to G74U A140G, 1.99.
With G74A U87A, the self-cleavage was 0.07.
The figure for G74A U108C is 1.48; for G74A U119C it is 1.71.
Regarding A69U G97C, the self-cleavage is 0.
To G74A U85A belongs 0.05.
In the case of G75A A78G, the self-cleavage is 0.7.
To G74A A142G belongs 1.1.
Consider G72A U87C, for which the self-cleavage turned out to be 0.25.
With U73C U91A, the self-cleavage turned out to be 0.57.
As for G72A A117U, the self-cleavage was found to be 1.54.
U73A U108C: the self-cleavage was 2.23.
On to U73A U108G, for which the self-cleavage stood at 0.44.
For U73C A129U, the self-cleavage was 2.11.
For the variant U73A A117U, the self-cleavage amounted to 1.81.
As for G72A U96A, the self-cleavage was 0.04.
The figure for U73C C113U is 1.85.
Consider G74A U104C, for which the self-cleavage stood at 1.34.
The figure for A69U U108C is 0.06.
The figure for G74U A142G is 1.63; for U73C C118A it is 1.46; for G70A U100A it is 0.05.
To G74A A79G belongs 0.8; to G74A A79U, 2.06; to G72U U85G, 0.1.
For the variant U73A A92G, the self-cleavage was found to be 0.13.
Take U73A A92U: the self-cleavage is 0.8.
The figure for C71A A129G is 0.23; for G72U U73C it is 0.9; for A69U U102C it is 0.06.
On to A69U G82A, for which the self-cleavage was determined as 0.14.
Consider G75A G126A, for which the self-cleavage is 0.87.
The figure for U73G A77G is 0.98.
For G72U U143C, the self-cleavage was determined as 1.02.
The figure for U73G U91C is 0.29.
Consider C71U G75A, for which the self-cleavage stood at 0.59.
Regarding U73C C99U, the self-cleavage worked out at 1.06.
The figure for G70U G97A is 0.01; for G72A U143A it is 1.85.
The figure for G72A G88A is 0.03; for G72A U134A it is 1.15; for U73G A121G it is 2.45.
Turning to U73C U130C, the self-cleavage was 1.81.
Consider U73C U130A, for which the self-cleavage is 1.2.
To A69U G80A belongs 0.3; to A69U G80U, 0.03; to U73C C145A, 1.44.
The figure for A69U C116A is 0.05; for U73A U87A it is 0.07; for A69U C95A it is 0.02.
The figure for A69U U112C is 0.06.
In the case of A69U U112A, the self-cleavage was 0.04.
In the case of U73A G93U, the self-cleavage turned out to be 0.03.
To U73A U143C belongs 1.4.
Turning to U73A U143A, the self-cleavage was found to be 1.75.
The figure for G74U G114A is 1.21.
To C71A U130A belongs 0.17; to G74A G86A, 0.
The figure for G74U A77G is 1.01; for G74A A129G it is 1.53; for G74A A129U it is 1.09.
As for G74C C99U, the self-cleavage amounted to 0.61.
Turning to A69U C118U, the self-cleavage turned out to be 0.01.
To U73C G135A belongs 1.07; to G74A A121G, 1.43.
In the case of G74A U100A, the self-cleavage came to 0.7.
The figure for U73A A79U is 2.48; for U73C U119A it is 1.64; for U73C U119C it is 2.11.
Turning to U73A C101U, the self-cleavage came out at 2.61.
To U73A G127A belongs 1.58; to G74A A94U, 0.17; to G75A G83A, 0.76.
The figure for U73C G74U is 1.64; for U73A G105A it is 2.29; for U73C C98U it is 0.36.
As for U73G A136U, the self-cleavage stood at 0.81.
On to U73C A77G, for which the self-cleavage was 2.78.
Regarding G70C G144A, the self-cleavage turned out to be 0.15.
To G70A U130A belongs 0.15; to G74U U102C, 1.42.
Turning to C71G A77G, the self-cleavage stood at 0.4.
For A69G U108C, the self-cleavage came out at 0.68.
Consider U73A G83A, for which the self-cleavage is 0.53.
On to A69G U109C, for which the self-cleavage is 0.29.
To A69U A77U belongs 0.06; to A69U A77G, 0.07.
As for U73A C99A, the self-cleavage is 0.92.
In the case of G72C A136G, the self-cleavage was 1.41.
To U73A U134G belongs 0.45.
As for U73A U134A, the self-cleavage was determined as 1.28.
To U73A U134C belongs 1.46; to G74U U134C, 1.88; to U73C A78G, 1.12.
With U73C A78C, the self-cleavage is 0.77.
The figure for U73C A136G is 1.64; for C71A G83U it is 0.58.
Regarding A69U U104C, the self-cleavage came out at 0.05.
To G74U A107G belongs 0.51.
The figure for U73A G137A is 1.7.
To C71A U115A belongs 0.16; to U73A G97A, 0.11; to U73C U143C, 2.13.
With U73C U143A, the self-cleavage was found to be 1.63.
As to U73C G127U, the self-cleavage turned out to be 0.92.
Take G75A U102A: the self-cleavage came to 1.36.
The figure for G70U U102A is 0.11; for G75A A136G it is 1.35; for G72U U115C it is 1.31.
To G74C U102C belongs 0.88.
To G75A A124G belongs 0.72; to U73C U115A, 1.58; to C71U A79U, 0.74.
Regarding A69U U130G, the self-cleavage turned out to be 0.09.
On to A69U G88A, for which the self-cleavage amounted to 0.01.
In the case of C71U U96C, the self-cleavage was 0.05.
The figure for C71U U96A is 0.04; for U73A C95G it is 0.06; for U73A U100A it is 0.97.
The figure for U73A U100C is 2.71.
Regarding G72U U87A, the self-cleavage is 0.03.
The figure for G74C A140G is 1.53; for G75A it is 1.11.
To G75A U109A belongs 0.99; to G75A U109C, 1.1; to A69G U100C, 0.98.
Take A69G U100A: the self-cleavage stood at 0.17.
For C71U C111U, the self-cleavage turned out to be 0.82.
The figure for G70U U91C is 0.03; for G72U A121U it is 1.08; for G72U A121G it is 1.32.
To G75A U130C belongs 0.95; to G72U U91C, 0.49; to G72U U91A, 0.49.
As for G72A A77U, the self-cleavage was 1.44.
The figure for C71U C90A is 0.04; for U73A U115A it is 1.66.
